Reference: US20250052751A1, “COMPOSITIONS AND METHODS FOR DIAGNOSING AUTOIMMUNE AQUAPORINOPATHY” (The Regents of the University of California, priority 2023, published 2025)

Target: MHC class II I-A^b molecules purified by affinity chromatography (mouse) (UniProt P14434)
Assay: competitive peptide binding assay on purified I-Ab

Substance: MOG p35-55 (from UniProt Q61885 63-83)
- IC50: 387 nM
